Kd data for one molecule are collected here from patent US12466878 (dated 2025).

The experiment addresses HLA-A*02:01 (human;). Put plainly: ELISA. On the technique in general: An ELISA detects its analyte on a solid surface through an enzyme-linked reagent.

KIQEILTQV [IGF2BP3-001 peptide KIQEILTQV (SEQ ID NO: 1)]: the affinity, expressed as Kd, was 0.874 nM.
